Test [1] has as its target LarE from Thermotoga maritima, C-terminal His6-tagged (Thermotoga maritima). The experiment in a line: native MS; nondenaturing nano-ESI-MS (Q Exactive UHMR) under anoxic atmosphere; cluster-assembled His6-tagged LarETm after anaerobic incubation with IscSEc and L-cysteine; CID 15 eV.
Test [2] has the same target. The experiment in a line: SEC-MALS; Superdex 200 Increase 10/300 GL, 100 mM Tris-HCl pH 7.2, 300 mM NaCl, 0.5 ml/min; miniDAWN TREOS detector. A general note: Size exclusion chromatography separates by hydrodynamic size, large species first.

Here are results for 1 substance from PMC9283937.

As a reminder, the stoichiometry N is the number of molecules, sites or subunits per partner or assembly.

Several values for one entry are separate records, joined by “and”; a condition that tells them apart may be missing. Identical values can stand only once.

For “LarE from Thermotoga maritima, C-terminal His6-tagged (enzyme)”, the stoichiometry N in test [1] was 2 and 4 and 6; in test [2] it was 2.
